Target: full-length mouse IGF1R (MmIGF1R), residues 1–1262, Y951A, D1107N (mouse) (UniProt Q60751)
Test: cryo-EM structure; purified MmIGF1R and HsIGF1 mixed at molar ratio 1:2, 1 h at 4 °C, complex purified by SEC in 20 mM Hepes-Na pH 7.4, 200 mM NaCl, 0.03% DDM; 4.3 Å

Sequence of full-length mouse IGF1R (MmIGF1R), residues 1–1262, Y951A, D1107N (mouse) (Q60751 31-1292 Y981A/D1137N): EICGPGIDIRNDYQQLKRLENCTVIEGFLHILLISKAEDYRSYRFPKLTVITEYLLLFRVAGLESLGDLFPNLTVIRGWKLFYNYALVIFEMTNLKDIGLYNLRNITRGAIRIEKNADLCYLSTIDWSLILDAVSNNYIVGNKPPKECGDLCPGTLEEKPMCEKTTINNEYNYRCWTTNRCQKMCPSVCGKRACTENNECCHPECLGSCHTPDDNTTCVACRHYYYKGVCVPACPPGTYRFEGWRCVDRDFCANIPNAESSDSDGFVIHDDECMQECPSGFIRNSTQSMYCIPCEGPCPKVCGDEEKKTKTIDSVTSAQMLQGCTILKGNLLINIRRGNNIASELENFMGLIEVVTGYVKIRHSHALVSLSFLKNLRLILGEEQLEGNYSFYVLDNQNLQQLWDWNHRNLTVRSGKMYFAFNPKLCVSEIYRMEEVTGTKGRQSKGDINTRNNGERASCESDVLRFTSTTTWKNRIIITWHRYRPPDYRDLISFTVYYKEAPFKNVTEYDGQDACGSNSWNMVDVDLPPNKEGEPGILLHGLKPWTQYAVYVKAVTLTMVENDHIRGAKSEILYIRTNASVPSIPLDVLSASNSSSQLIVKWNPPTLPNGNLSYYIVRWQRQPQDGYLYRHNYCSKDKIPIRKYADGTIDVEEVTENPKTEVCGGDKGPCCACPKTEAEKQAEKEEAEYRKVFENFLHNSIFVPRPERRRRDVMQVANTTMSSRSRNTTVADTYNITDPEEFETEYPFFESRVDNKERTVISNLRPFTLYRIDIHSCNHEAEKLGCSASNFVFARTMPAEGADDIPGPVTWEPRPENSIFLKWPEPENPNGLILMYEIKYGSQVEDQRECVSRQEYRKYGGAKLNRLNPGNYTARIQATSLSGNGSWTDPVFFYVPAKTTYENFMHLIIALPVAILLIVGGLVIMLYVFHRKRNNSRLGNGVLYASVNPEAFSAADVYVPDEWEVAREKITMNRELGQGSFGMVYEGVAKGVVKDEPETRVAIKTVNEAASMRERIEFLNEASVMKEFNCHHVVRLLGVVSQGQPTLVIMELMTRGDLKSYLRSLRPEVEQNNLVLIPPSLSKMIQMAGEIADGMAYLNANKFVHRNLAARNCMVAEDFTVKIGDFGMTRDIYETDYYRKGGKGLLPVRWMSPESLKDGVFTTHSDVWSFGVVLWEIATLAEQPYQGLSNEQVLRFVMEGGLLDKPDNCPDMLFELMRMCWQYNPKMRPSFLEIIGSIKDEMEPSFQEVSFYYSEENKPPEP

human IGF1 (HsIGF1), mature, residues 49–118 (ligand)
stoichiometry N (IGF1 per IGF1R dimer): 1
